For test [1], the target named is SIRPα V7 fusion Fc (mouse IgG2a) (human). Put plainly: ELISA, SIRPα V7-mouse IgG2a Fc coated, anti-hFab detection; unit from the x axis Log(Conc.(nM)). (In an ELISA, binding on a coated surface is turned into a signal by an enzyme label.)
Test [2] has as its target T1, SIRPα V5 fusion Fc (mouse IgG2a) (human, limits assumed).
T1 chain: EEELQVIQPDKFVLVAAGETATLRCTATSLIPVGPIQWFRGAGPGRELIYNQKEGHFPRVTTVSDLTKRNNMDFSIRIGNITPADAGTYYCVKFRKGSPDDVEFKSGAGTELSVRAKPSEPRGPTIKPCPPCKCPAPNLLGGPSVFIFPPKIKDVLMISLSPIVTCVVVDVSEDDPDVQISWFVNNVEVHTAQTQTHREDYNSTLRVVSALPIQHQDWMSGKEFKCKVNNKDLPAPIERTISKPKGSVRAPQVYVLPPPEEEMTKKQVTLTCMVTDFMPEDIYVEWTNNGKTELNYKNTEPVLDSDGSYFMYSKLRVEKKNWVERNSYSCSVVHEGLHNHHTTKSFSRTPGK
Put plainly: ELISA, SIRPα V5-mouse IgG2a Fc coated, anti-hFab detection; unit from the x axis Log(Conc.(nM)).

The target in test [3] is SIRPα V3 fusion Fc (mouse IgG2a) (human). Description: ELISA, SIRPα V3-mouse IgG2a Fc coated, anti-hFab detection; unit from the x axis Log(Conc.(nM)).
Test [4] deals with SIRPα V8 fusion Fc (mouse IgG2a) (human). Put plainly: ELISA, SIRPα V8-mouse IgG2a Fc coated, anti-hFab detection; unit from the x axis Log(Conc.(nM)).
Test [5] concerns the target SIRPα V2 fusion Fc (mouse IgG2a) (human). Put plainly: ELISA, SIRPα V2-mouse IgG2a Fc coated, anti-hFab detection; unit from the x axis Log(Conc.(nM)).
Test [6] has as its target SIRPα V10 fusion Fc (mouse IgG2a) (human). Description: ELISA, SIRPα V10-mouse IgG2a Fc coated, anti-hFab detection; unit from the x axis Log(Conc.(nM)).
For test [7], the target named is T2, QP096 (human SIRPα V2 ECD(E31-R370)-flag-his) (human).
T2 construct: the construct carries flag and his tags; also called SIRPαV2-Flag-his; Human SIRPα V2 (QP096)
T2 sequence (chain, as listed by the source limits assumed): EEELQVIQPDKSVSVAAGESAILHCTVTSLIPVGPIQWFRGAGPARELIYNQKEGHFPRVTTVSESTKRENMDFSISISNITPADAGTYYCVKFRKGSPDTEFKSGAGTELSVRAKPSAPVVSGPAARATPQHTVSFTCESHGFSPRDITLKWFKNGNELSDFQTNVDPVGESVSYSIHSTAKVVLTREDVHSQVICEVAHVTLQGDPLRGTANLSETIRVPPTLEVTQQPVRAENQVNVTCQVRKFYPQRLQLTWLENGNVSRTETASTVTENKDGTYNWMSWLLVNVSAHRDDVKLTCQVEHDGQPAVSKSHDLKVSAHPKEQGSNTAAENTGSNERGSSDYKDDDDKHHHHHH
Put plainly: SPR, Biacore.

In test [8] the target is T3, QP094 (human SIRPα V1 ECD(E31-R370)-flag-his) (human, UniProt P78324 31-370).
T3 construct: the construct carries flag and his tags; also called SIRPαV1-flag-his; SIRPαV1-his (QP094)
Put plainly: SPR, Biacore. In general terms: In SPR one partner is held on a chip, and binding of the other changes the refractive index at the surface.

Test [9] deals with T4, QP002 (biotinylated in the blocking assays, sites not given).
T4 construct: also called SIRPα-FC; Biotin-QP002
Description: blocking ELISA: QP001.2 (CD47) coated, biotin-QP002 (SIRPα-FC) mixed with the antibody, HRP-streptavidin; blocked ligand: CD47; unit from the x axis Log[Conc.(ug/ml)].

Test [10] concerns the target T2, QP096 (human SIRPα V2 …). Put plainly: binding ELISA, antigen coated.
Test [11] deals with T3, QP094 (human SIRPα V1 …). Description: binding ELISA, antigen coated.
Test [12] addresses T5, QP093 (human SIRPα V1 ECD(E31-R370)-mFC(IgG2a)) (human).
T5 construct: also called Human SIRPα V1 recombinant protein (QP093)
T5 chain: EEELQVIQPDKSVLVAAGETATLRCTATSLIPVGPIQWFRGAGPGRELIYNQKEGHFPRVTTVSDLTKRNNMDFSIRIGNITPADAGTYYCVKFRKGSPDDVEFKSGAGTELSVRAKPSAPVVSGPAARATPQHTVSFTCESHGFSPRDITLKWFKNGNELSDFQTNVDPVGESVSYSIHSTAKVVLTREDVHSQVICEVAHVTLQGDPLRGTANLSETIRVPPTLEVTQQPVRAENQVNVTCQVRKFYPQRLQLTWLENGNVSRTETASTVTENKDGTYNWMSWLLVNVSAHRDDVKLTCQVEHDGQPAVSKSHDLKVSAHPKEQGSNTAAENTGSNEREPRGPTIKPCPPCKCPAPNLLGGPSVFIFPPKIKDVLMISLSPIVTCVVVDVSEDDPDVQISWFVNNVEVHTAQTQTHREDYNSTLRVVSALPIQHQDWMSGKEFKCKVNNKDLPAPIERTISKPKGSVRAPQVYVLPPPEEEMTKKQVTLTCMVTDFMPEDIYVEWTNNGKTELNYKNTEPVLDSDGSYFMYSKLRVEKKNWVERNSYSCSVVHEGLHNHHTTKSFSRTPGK
Put plainly: ELISA, QP093 (SIRPα V1) coated, anti-hFab detection; unit from the x axis Log(Conc.(nM)).

The target in test [13] is T6, QP533 (SIRPαV4-mFC(mIgG2a)) (human, limits assumed).
T6 construct: also called human SIRPα V4 recombinant protein (QP533)
T6 chain: T5 chain with E3G, L14S, T20S, T22I, R24H
Put plainly: ELISA, human SIRPα V4 recombinant protein (QP533) coated, HRP anti-human Fc detection.

Where a chain is given by its changes, count along the chain named. Numbers in names are those of the source.

B1: QP256279 (antibody, human IgG4, V domains shown)
VH: QVQLVQSGAEVKKPGASVKVSCKASGYTFTNYWINWVRQAPGQGLEWIAMIDPSDSETHYNQIFKDRATLTTDTSTSTAYMELRSLRSDDTAVYYCAMDYGSLYAMDYWGRGTLVTVSS
VL: DIVLTQSPDSLAVSLGERATINCRASQSVRSSGYNWIFWYQQKPGQPPKLLIYLASNRDSGVPDRFSGSGSGTDFTLTISSLQAEDVAVYYCQHSRELPTFGQGTKLEIK
notes: Human IgG4 heavy constant region and kappa CL
Consider B1, for which the EC50 (in general, the concentration at which the effect is half-maximal) in test [1] amounted to 0.0707 nM; in test [2] it was 0.0691 nM; in [3], 0.0635 nM; in test [4] it was 0.0851 nM; in [5], 0.0682 nM; in test [6], 0.0682 nM. For the same molecule, the EC50 in test [10] is 0.624 ng/mL; in test [11], 0.651 ng/mL. For the same molecule, the values for the Kd in test [7] and in [8] were 0.0446 nM and 0.0354 nM, respectively. The IC50 (usually the concentration that gives 50% inhibition) in test [9] is 12.9 ng/mL.

B2: QP32700279 (antibody, human IgG1, kappa, L234A L235A, V domains shown)
VH: B1 VH
VL: DIVLTQSPDSLAVSLGERATINCRASQSVRSSGYNWIFWYQQKPGQPPKLLIYLASNRDSGVPDRFSGSGSGTDFTLTISSLQAEDVAVYYCQHSRELPTFGQGTKLEIKR
notes: also called SIRPα monoclonal antibody CHO71
On to B2, for which the EC50 in test [12] came to 0.142 nM; in test [13], 0.151 nM.

B3: QP026249 (KWAR23 analog) (antibody, human IgG4 S228P, kappa)
heavy: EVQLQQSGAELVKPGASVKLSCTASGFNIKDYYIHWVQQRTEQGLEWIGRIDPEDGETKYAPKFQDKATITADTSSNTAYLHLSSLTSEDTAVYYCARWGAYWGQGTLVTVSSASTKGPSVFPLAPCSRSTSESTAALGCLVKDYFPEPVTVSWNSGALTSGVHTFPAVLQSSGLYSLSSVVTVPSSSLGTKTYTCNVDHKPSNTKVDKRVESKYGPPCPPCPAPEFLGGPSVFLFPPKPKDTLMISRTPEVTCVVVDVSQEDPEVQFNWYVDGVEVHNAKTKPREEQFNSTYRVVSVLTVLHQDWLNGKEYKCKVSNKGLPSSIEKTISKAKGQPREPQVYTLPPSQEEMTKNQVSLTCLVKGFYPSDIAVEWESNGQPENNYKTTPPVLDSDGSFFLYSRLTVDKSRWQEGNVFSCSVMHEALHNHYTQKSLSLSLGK
light: QIVLTQSPAIMSASPGEKVTLTCSASSSVSSSYLYWYQQKPGSSPKLWIYSTSNLASGVPARFSGSGSGTSYSLTISSMEAEDAASYFCHQWSSYPRTFGAGTKLELKRTVAAPSVFIFPPSDEQLKSGTASVVCLLNNFYPREAKVQWKVDNALQSGNSQESVTEQDSKDSTYSLSSTLTLSKADYEKHKVYACEVTHQGLSSPVTKSFNRGEC
notes: also called KAWA23 analog; control antibody KWAR23 (QP026249), human IgG4
With B3, the EC50 in test [12] worked out at 0.237 nM; in test [1], 0.147 nM; in test [2], 0.144 nM; in [3], 0.135 nM; in [4], 0.18 nM; in test [5], 0.137 nM. Besides, the EC50 in test [6] came out at 0.137 nM; in [10], 3.31 ng/mL; in test [11] it was 5.29 ng/mL; in test [13] it was 0.439 nM. The Kd (commonly the equilibrium constant for the complex coming apart) came to 13.6 nM in test [7] and 3.43 nM in test [8]. In test [9], this molecule gave an IC50 of 45.4 ng/mL.

B4: QP37503751 (1H9 analog) (antibody, human IgG1, kappa, N297A, V domains shown)
VH: QVQLVQSGAEVKKPGASVKVSCKASGYTFTSYWITWVKQAPGQGLEWIGDIYPGSGSTNHIEKFKSKATLTVDTSISTAYMELSRLRSDDTAVYYCATGYGSSYGYFDYWGQGTLVTVSS
VL: DIQMTQSPSSLSASVGDRVTITCRASENIYSYLAWYQQKPGKAPKLLIYTAKTLAEGVPSRFSGSGSGTDFTLTISSLQPEDFATYYCQHQYGPPFTFGQGTKLEIKR
notes: also called hz1H9 hIgG1(N297A)
For B4, in [13], the EC50 worked out at 0.169 nM.

B5: QP250251 (18D5 analog) (antibody, human IgG4 S228P, kappa, V domains shown)
VH: QVQLQQPGAELVRPGSSVKLSCKASGYTFTSYWVHWVKQRPIQGLEWIGNIDPSDSDTHYNQKFKDKASLTVDKSSSTAYMQLSSLTFEDSAVYYCVRGGTGTMAWFAYWGQGTLVTVSA
VL: DVVMTQTPLSLPVSLGDQASISCRSSQSLVHSYGNTYLYWYLQKPGQSPKLLIYRVSNRFSGVPDRFSGSGSGTDFTLKISRVEAEDLGVYFCFQGTHVPYTFGSGTKLEIKR
notes: also called SIRPα antibody 18D5 from OSE
For B5, the EC50 came to 0.13 nM in [2] and 0.539 nM in [13].
